Source: patent US20250263462A1 (US Dept. of Health and Human Services, published 2025)

Columns and labels:
Assay in all cases: cell-based or functional assay
[1] = molecular target: KRAS G12V 10-mer peptide … (SEQ ID NO: 33) presented by HLA-A11 on pulsed cells (human, UniProt A*11:01)
[2] = molecular target: T1, WT KRAS 10-mer peptide (SEQ ID NO: 30) presented by HLA-A11 on pulsed cells (human, UniProt A*11:01)
[3] = molecular target: KRAS G12D 9-mer peptide KRAS7-15 … (SEQ ID NO: 124) presented by HLA-A11 on pulsed cells (human, UniProt A*11:01)
[4] = molecular target: T2, KRAS G12D 9-mer peptide KRAS8-16 … (SEQ ID NO: 34) presented by HLA-A11 on pulsed cells (human, UniProt A*11:01)
[5] = molecular target: T1, WT KRAS 10-mer peptide (SEQ ID NO: 30) …; remark: listed apart in the source
[6] = molecular target: WT KRAS 9-mer peptide (SEQ ID NO: 31) presented by HLA-A11 on pulsed cells (human, UniProt A*11:01)
[7] = molecular target: T2, KRAS G12D 9-mer peptide KRAS8-16 … (SEQ …); remark: listed apart in the source
[8] = molecular target: HLA-A11 on COS7/A11 cells expressing the WT KRAS minigene (23-mer SEQ ID NO: 118) (human, UniProt A*11:01)
[9] = molecular target: HLA-A11 on COS7/A11 cells expressing the KRAS G12V minigene (23-mer SEQ ID NO: 120) (human, UniProt A*11:01)
[10] = molecular target: HLA-A11 on COS7/A11 cells expressing the KRAS G12D minigene (23-mer SEQ ID NO: 119) (human, UniProt A*11:01)

B1: TRAV12N-3*01/BV4*01 murine anti-KRAS G12D TCR (SEQ ID NOs: 11 and 12) (TCR, V domains shown)
V domain 1: GDSVTQTEGLVTLTEGLPVMLNCTYQTIYSNPFLFWYVQHLNESPRLLLKSFTDNKRTEHQGFHATLHKSSSSFHLQKSSAQLSDSALYYCALRGNAGAKLTFGGGTRLTVRP
V domain 2: ETAVFQTPNYHVTQVGNEVSFNCKQTLGHDTMYWYKQDSKKLLKIMFSYNNKQLIVNETVPRRFSPQSSDKAHLNLRIKSVEPEDSAVYLCASSSRDWSAETLYFGSGTRLTVLE
- IFN-γ, PBL + COS7/A11 pulsed at 1 × 10^-6 M [1]: 97 pg/mL
- IFN-γ, PBL + COS7/A11 pulsed at 1 × 10^-7 M [1]: 83 pg/mL
- IFN-γ, PBL + COS7/A11 pulsed at 1 × 10^-8 M [1]: 86 pg/mL
- IFN-γ, PBL + COS7/A11 pulsed at 1 × 10^-9 M [1]: 88 pg/mL
- IFN-γ, PBL + COS7/A11 pulsed at 1 × 10^-10 M [1]: 88 pg/mL
- IFN-γ, PBL + COS7/A11 pulsed at 1 × 10^-11 M [1]: 86 pg/mL
- IFN-γ, PBL + COS7/A11 pulsed at 1 × 10^-12 M [1]: 96 pg/mL
- IFN-γ, PBL + COS7/A11 pulsed at 1 × 10^-13 M [1]: 97 pg/mL
- IFN-γ, PBL + COS7/A11 pulsed at 1 × 10^-6 M [2]: 78 pg/mL
- IFN-γ, PBL + COS7/A11 pulsed at 1 × 10^-7 M [2]: 88 pg/mL
- IFN-γ, PBL + COS7/A11 pulsed at 1 × 10^-8 M [2]: 102 pg/mL
- IFN-γ, PBL + COS7/A11 pulsed at 1 × 10^-9 M [2]: 99 pg/mL
- IFN-γ, PBL + COS7/A11 pulsed at 1 × 10^-10 M [2]: 95 pg/mL
- IFN-γ, PBL + COS7/A11 pulsed at 1 × 10^-11 M [2]: 86 pg/mL
- IFN-γ, PBL + COS7/A11 pulsed at 1 × 10^-12 M [2]: 102 pg/mL
- IFN-γ, PBL + COS7/A11 pulsed at 1 × 10^-13 M [2]: 98 pg/mL
- IFN-γ, PBL + COS7/A11 pulsed at 1 × 10^-6 M [3]: 87 pg/mL
- IFN-γ, PBL + COS7/A11 pulsed at 1 × 10^-7 M [3]: 91 pg/mL
- IFN-γ, PBL + COS7/A11 pulsed at 1 × 10^-8 M [3]: 72 pg/mL
- IFN-γ, PBL + COS7/A11 pulsed at 1 × 10^-9 M [3]: 90 pg/mL
- IFN-γ, PBL + COS7/A11 pulsed at 1 × 10^-10 M [3]: 90 pg/mL
- IFN-γ, PBL + COS7/A11 pulsed at 1 × 10^-11 M [3]: 95 pg/mL
- IFN-γ, PBL + COS7/A11 pulsed at 1 × 10^-12 M [3]: 83 pg/mL
- IFN-γ, PBL + COS7/A11 pulsed at 1 × 10^-13 M [3]: 112 pg/mL
- IFN-γ, PBL + COS7/A11 pulsed at 1 × 10^-6 M [4]: 136 pg/mL
- IFN-γ, PBL + COS7/A11 pulsed at 1 × 10^-7 M [4]: 95 pg/mL
- IFN-γ, PBL + COS7/A11 pulsed at 1 × 10^-8 M [4]: 99 pg/mL
- IFN-γ, PBL + COS7/A11 pulsed at 1 × 10^-9 M [4]: 90 pg/mL
- IFN-γ, PBL + COS7/A11 pulsed at 1 × 10^-10 M [4]: 85 pg/mL
- IFN-γ, PBL + COS7/A11 pulsed at 1 × 10^-11 M [4]: 85 pg/mL
- IFN-γ, PBL + COS7/A11 pulsed at 1 × 10^-12 M [4]: 94 pg/mL
- IFN-γ, PBL + COS7/A11 pulsed at 1 × 10^-13 M [4]: 115 pg/mL
- IFN-γ, PBL + Cos7/A11 pulsed at 10^-6 M [5]: 82 pg/mL
- IFN-γ, PBL + Cos7/A11 pulsed at 10^-7 M [5]: 77 pg/mL
- IFN-γ, PBL + Cos7/A11 pulsed at 10^-8 M [5]: 85 pg/mL
- IFN-γ, PBL + Cos7/A11 pulsed at 10^-9 M [5]: 102 pg/mL
- IFN-γ, PBL + Cos7/A11 pulsed at 10^-10 M [5]: 88 pg/mL
- IFN-γ, PBL + Cos7/A11 pulsed at 10^-11 M [5]: 81 pg/mL
- IFN-γ, PBL + Cos7/A11 pulsed at 10^-12 M [5]: 76 pg/mL
- IFN-γ, PBL + Cos7/A11 pulsed at 10^-13 M [5]: 92 pg/mL
- IFN-γ, PBL + Cos7/A11 pulsed at 10^-6 M [6]: 90 pg/mL
- IFN-γ, PBL + Cos7/A11 pulsed at 10^-7 M [6]: 96 pg/mL
- IFN-γ, PBL + Cos7/A11 pulsed at 10^-8 M [6]: 95 pg/mL
- IFN-γ, PBL + Cos7/A11 pulsed at 10^-9 M [6]: 88 pg/mL
- IFN-γ, PBL + Cos7/A11 pulsed at 10^-10 M [6]: 95 pg/mL
- IFN-γ, PBL + Cos7/A11 pulsed at 10^-11 M [6]: 84 pg/mL
- IFN-γ, PBL + Cos7/A11 pulsed at 10^-12 M [6]: 105 pg/mL
- IFN-γ, PBL + Cos7/A11 pulsed at 10^-13 M [6]: 103 pg/mL
- IFN-γ, PBL + Cos7/A11 pulsed at 10^-6 M [7]: 125 pg/mL
- IFN-γ, PBL + Cos7/A11 pulsed at 10^-7 M [7]: 86 pg/mL
- IFN-γ, PBL + Cos7/A11 pulsed at 10^-8 M [7]: 90 pg/mL
- IFN-γ, PBL + Cos7/A11 pulsed at 10^-9 M [7]: 92 pg/mL
- IFN-γ, PBL + Cos7/A11 pulsed at 10^-10 M [7]: 95 pg/mL
- IFN-γ, PBL + Cos7/A11 pulsed at 10^-11 M [7]: 88 pg/mL
- IFN-γ, PBL + Cos7/A11 pulsed at 10^-12 M [7]: 91 pg/mL
- IFN-γ, PBL + Cos7/A11 pulsed at 10^-13 M [7]: 84 pg/mL
- IFN-γ, PBL + COS/A11 minigene transfectant [8]: 130 pg/mL
- IFN-γ, PBL + COS/A11 minigene transfectant [9]: 126 pg/mL
- IFN-γ, PBL + COS/A11 minigene transfectant [10]: > 10000 pg/mL
